From the DeepSol protein solubility set

Test: soluble on expression in E. coli; label from the status in PepcDB or PDB records
In the case of “MKEVKRPVVSVVVPVYNTEPFLAECLHSLEKQTLTDIEIILVNDGSTDNSGRLLREYAGKDARFVYVEQENQGLSAARNTGMEHASGHYLAFLDSDDWLAENALQVLCAIAAKTRTDIVSGNTLAVHADGQVQSWERRGRELFATGTVVSGSTYFSRVMDCRCYVPMVYNYLYRRDFIEQNGFRFEPGLVHEDELWTPQVLTTAQKITVADIDFYYYRQREGSIMTATAAGRRIASIQLIIEKLLEYSRKHLFEKKYREAKEALYVRLLQIYSTACTLHPDGTYTTLYDRAGEMLRVCEELRRQESLGRWYSEEILNRMKLYYDRLQTMEG”, the “soluble on expression in E. coli” value is reported as “not soluble”.
For “MADSTATSTPRAVPSHEDRPVYVIGGGPGGLAAAHALRAQGVRAVVLEKSDRVGASWRRHYDRLHLHTTRRLSALPGLPMPRSFGRWVSRDNVVRYLEKYVEHHQLEIVTGVEVSRVEPAPDGTGWLLHATGGRELTGSAVVVATGHNHTPHLPDWPGRDAYTGELLHAGDYRNATPHAGRDVLVVGVGNTGAEIAVDLVEGGASRVRLAVRTAPHIVRRSTAGWAAQFTGIVVRRLPVRLVDLLAGPMARLSVPDLSAQGLPRPDTGLYSRVREGSIPVQDVGLIDAVRKGRVEIVAAVDGFEDGKVVLADGNRIGPDVVIAATGYARALEDLVGHLDVLDGRGRPTVHGARTPRTAPGLYFTGFTNPISGMFRELAIDAEKIAKAVAKALARTTARTPALEHHHHHH”, the “soluble on expression in E. coli” value was “soluble”.
For “GGMEVLDLVTGPDSVTEIEAFLNPRMGQPPTPESLTEGGQYYGWSRGINLATSDTEDSPGNNTLPTWSMAKLQLPMLNEDLTCDTLQMWEAVSVKTEVVGSGSLLDVHGFNKPTDTVNTKGISTPVEGSQYHVFAVGGEPLDLQGLVTDARTKYKEEGVVTIKTITKKDMVNKDQVLNPISKAKLDKDGMYPVEIWHPDPAKNENTRYFGNYTGGTTTPPVLQFTNTLTTVLLDENGVGPLCKGEGLYLSCVDIMGWRVTRNYDVHHWRGLPRYFKITLRKRWVKNPYP”, the “soluble on expression in E. coli” value was “soluble”.
For “MKNFEWNTSFSFAYMNNEVKHLYGEYENVLDANGNIVGSKEKDEYGKWWIGRPISAIWDYRVTGIWQPDEIEEAKKVGQLPGDPKVANNYTEDDIISSDGSRIPVYNDKDKEFLGQTTSPYILSMRNNFTILKNIDFSFNLYSCIGSKMKDTSYLNQVNASEIDYGLNQSIKEYWTPEHQSNTYARLNSKGPTGVNSPARYIDRSFIRLENISIGYTFPKSIVSRWGLSNLKVYGTIRNAALWTMSHWKLNDIETGGLAPRTYSLGINVTL”, the “soluble on expression in E. coli” value was “not soluble”.
With “MGSDKIHHHHHHMESENQEYQNEADLLSKQEEWCDEEFQEEDSFDIKEYDITTSPNDFNTKTMFDFIESGAVKIPGFQRNYVWDIKRASKLIESIIIGLPVPQIFLYEEARNRFLVIDGQQRLMSIYYFVKQRFPIYEKRIELRHIFDENGKIPGEVLHNDKYFTKFNLQLPSRLSNQRNKLHSLNYSTLDEYKITFDLRTIRNIIIKQNFPSDDNSSIYEVFNRLNSGGMNLKPQEIRASLYHSDFYTMLYRINALPEWRKIVGVEPDLHMKDIEILLRGFAMLVKGTEYKPSMAKFLNEFSSGCKKLEAQKIQYLEELFHSFLSSCSNLPEKAFYGKITNKFNLSMFESIFFAHCKKSFAQEIFIEDKLDYTQLERLKSDPEFINAIQNRTSSTANVKARLERAVSILAEEV” the “soluble on expression in E. coli” value was “not soluble”.
With “MAHHHHHHMTSAYRIRDAAPADAGIMVRMLMSLASETENVELDEGEVRRGVTTLFEQGSLGRLYVAEEVPKGDTNIKGPSDGNRSSPQIVGVMTVTYEWSDWRGKLFLWIQSVYIIPSKRKQGIFQKFYDHLIRIMAEDPKYCGLRLAVNSKNEKAIRAYKQVGMKREKYQLMGRMKSKY” the “soluble on expression in E. coli” value was “soluble”.
In the case of “MLEFDTTQDQLANIKVIGVGGGGNNAVNRMIEHGVQGVDFIAVNTDAQALNLSKAETKMQIGGKLTRGLGAGANPEVGKKAAEESKEQIQEALRGADMVFVTAGMGGGTGTGAAPVVAQVAKELGALTVGVVTRPFTFEGRKRATQAASGIAAFKENVDTLIVIPNDRLLEIVDKNTPMLEAFREADNVLRQGVQGISDLIATPGLINLDFADVKTIMSNRGSALMGIGSGNGENRAAEAAKKAISSPLLETSIDGAQGVIMNITGGANLSLYEVQEAADIVASASDPEVNMIFGSVINEGLKDDIVVTVIATGFDDSIATQPPKPIIRPNVNHTQQQQQPVAQPPKQREVKREMKREEPVVHERHSDSDSDDIDIPAFLRNRRRR”, the “soluble on expression in E. coli” value is reported as “not soluble”.
With “MAEARSQPSAGPQLNALPDHSPLLQPGLAALRRRAREAGVPLAPLPLTDSFLLRFLRARDFDLDLAWRLLKNYYKWRAECPEISADLHPRSIIGLLKAGYHGVLRSRDPTGSKVLIYRIAHWDPKVFTAYDVFRVSLITSELIVQEVETQRNGIKAIFDLEGWQFSHAFQITPSVAKKIAAVLTDSFPLKVRGIHLINEPVIFHAVFSMIKPFLTEKIKERIHMHGNNYKQSLLQHFPDILPLEYGGEEFSMEDICQEWTNFIMKSEDYLSSISESIQ” the “soluble on expression in E. coli” value was “soluble”.
In the case of “MGSDKIHHHHHHAPKGAEARMIATVDAEQARTLRFLEVMVNQNSGSRNLEGVRRLRDIVVPEFTALGFTSRWIPMERTGRAGHLVLTHKGRQGAKKLLLIGHLDTVFEPDSPFQTYVLNGEKATGPGVGDDKGGIAVILAAVRAMNAAGTLKGASIEVFLTGDEEEAGSPTEVARADLVAAARAADVALDFEGLSRENGRDMGSIARRSSQSWSLTVEAKSGHSSGVWGANAGDGAIYAAAKIVNAFRTELPEPWLTLNVGLIAGGAEAEVAEDNAHVSAQGKTNIIPGEVIARGDLRTLSPEQNRAAMRKMEEIVGRPYPGVTSARIAFSEGYPPMAPTEGNKALLARLNQVNATLGLPEMQPLDPMKRGAGDISFVAEYIDGLVGLGPHSTGDHAPGETVDVPSIWTQAKRAALLMTRLSAEKSAR”, the “soluble on expression in E. coli” value is reported as “not soluble”.
In the case of “DVLAVTSCPSGVAHTFLAAKSLEKAACALGIKIKVETQGANGVINRITEKDIEKAKFVIFAHDVAIKEPERFRKIKVLDVTTKDAMLNATALLQARRVS”, the “soluble on expression in E. coli” value is reported as “not soluble”.
For “MSQMMQMYQQVGPAQFSAMIGQFAPYFASIAPQFVELRPGYAEVTFPKRREVLNHIGTVHAIALCNAAELAAGTMTDASIPAGHRWIPRGMTVEYLAKATGDVRAVADGSQIDWQATGNLVVPVVAYVDDKPVFRAEITMYVSQA”, the “soluble on expression in E. coli” value was “soluble”.
In the case of “MIKLDMTMLDSFKEDPNLRKLLFSGHFGLEKENIRVTSDGKLALTPHPAIFGPKEDNPYIKTDFSESQIEMITPVTDSIDSVYEWLENLHNIVSLRSENELLWPSSNPPILPAEEDIPIAEYKTPDSPDRKYREHLAKGYGKKIQLLSGIHYNFSFPEALIDGLYANISLPEESKQDFKNRLYLKVAKYFMKNRWLLIYLTGASPVYLADFSKTKHEESLPDGSSALRDGISLRNSNAGYKNKEALFVDYNSFDAYISSISNYIEAGKIESMREFYNPIRLKNAHTDQTVESLAEHGVEYLEIRSIDLNPLEPNGISKDELDFIHLFLIKGLLSEDRELCANNQQLADENENNIALNGLAQPSIKNCDNEDIPLADAGLLELDKMSDFIKSLRPEDTKLRAIIEKQKERLLHPEKTIAAQVKQQVTKEGYVDFHLNQAKTYMEETEALAYKLIGAEDMELSTQIIWKDAIARGIKVDVLDRAENFLRFQKGDHIEYVKQASKTSKDNYVSVLMMENKVVTKLVLAEHDIRVPFGDSFSDQALALEAFSLFEDKQIVVKPKSTNYGWGISIFKNKFTLEDYQEALNIAFSYDSSVIIEEFIPGDEFRFLVINDKVEAVLKRVPANVTGDGIHTVRELVEEKNTDPLRGTDHLKPLEKIRTGPEETLMLSMQNLSWDSIPKAEEIIYLRENSNVSTGGDSIDYTEEMDDYFKEIAIRATQVLDAKICGVDIIVPRETIDRDKHAIIELNFNPAMHMHCFPYQGEQKKIGDKILDFLFD”, the “soluble on expression in E. coli” value is reported as “soluble”.
For “MGSDKIHHHHHHMSKKVVLTREASKNKPWQTYFSQNGYEVMSIPLIKTQPIKINLTREQQETDWLFLTSANAVEYFFTNQYERSNYKIAVIGEKTKEKLAEFGHEPSFVPSIYQSEVFLEEWLNENPEKTSILLPQSNLSRTIIKDTLIEKGYIVFSIELYETIFPEASKKLLTEQLKLNETQIIVFASPSAWKNFYSIAKSFPAQKEKWHIASIGSITTEAILADGWEVKYQPKTFTMKHLADLIIQEELK”, the “soluble on expression in E. coli” value was “not soluble”.
With “MHTDINALFAALWQDYIQMTPSAAKVHELLGHGKPIINDHIALRTFNIAKVNLAVLAEHFTSLGYVACGDYKFEQKKLIAKHFEHPDATQPKVFISELLVEEFSSALQSTIQGLIAQVDEQATKADNFIYSGRHWTLDSKTYEALLEESEYAAWVAAFGYRANHFTVSINHLEGFDTLESVNDALKQAGFVLNTSGGEIKGSPEVLLEQSSTMADKIAVEFSDATVEIPSCFYEFALRYPKANGELYTGFVAASADKIFESTNAKKAAAALEHHHHHH” the “soluble on expression in E. coli” value was “not soluble”.
In the case of “SSLAISVANDDAGIFQPSLNALYGHPAADRGDYTAGLFLGYSHDLTDASQLSFHIAQDIYSPSGANKRKPEAVKGDRAFSAFLHTGLEWNSLATNWLRYRLGTDIGVIGPDAGGQEVQNRAHRIIGAEKYPAWQDQIENRYGYTAKGMVSLTPAIDILGVNVGFYPEVSAVGGNLFQYLGYGATVALGNDKTFNSDNGFGLLSRRGLIHTQKEGLIYKVFAGVERREVDKNYTLQGKTLQTKMETVDINKTVDEYRVGATIGYSPVAFSLSLNKVTSEFRTGDDYSYINGDITFFF”, the “soluble on expression in E. coli” value is reported as “soluble”.
For “AHHHHHHGSIRVRNLSFSYNGRAILRDIAFEVKEGEFLAILGPNGAGKSTLLRCLAKILKCEGEIEICGRNLHEYSRRELSKTIAYVPQRVEPNFLRVFDMVLLGRKPYMGIIPSEEDIKAVERALKTLKIEHLAGRLTKTLSGGELQKVAIARALAQESSIILLDEPTNNLDPRSQVDLMNLLRKLSQAGKTIVTVMHDINLALRFAEKLMFMKNGEVVGIVETKKISPEIIEETFNVKAEIFETPSGVKFCQFY”, the “soluble on expression in E. coli” value was “soluble”.
With “MKQEFSSIQFKAALLAAGLVLQVPAHANDGTIVITGAITDTTCIIEDPSDPNHTKVVQLPKISKSALKVKGDQAGRTPFTISLRDCPADLGNGVKVYFEPGPTTNYATGDLKAYKLAYATNPKATPLNSIVAATPATGVEIRISNLDDSKIPMGVDVTNQRAQGFNPVEQTGDTNKRTVTMRYLASYVKADGDIQASAITTYVGFSVVYP” the “soluble on expression in E. coli” value was “not soluble”.
In the case of “MGSDKIHHHHHHVSENTLKPQVNKLLAALPTNDYERLIPHLKLVSLPTRQVIYEPGEPIKQVYFPQNAVVSIVTGMKDGSTVEVGIVSNEGMVGIPVILGGSTTTTKAFVQVAGSGVQIDADVLRTEFNRGGAIQNLLLRYIRATYTELTQGCACNRLHTLEERLARWLLTVSDRLESEEFPLTQEFIAQMLGVRRSGVTVAASALSRAGMISYQRGQINILNREDLEETSCECYRVIQNEFARLLKNQPKRDRR”, the “soluble on expression in E. coli” value is reported as “not soluble”.
With “PREIVDFHAKLINDTPLSTYVGFLDDLQEHDEIDNARALSGIPGVVIVGEQDAVTPQSQSERIVSLWSDAGLQIAPNAGHMIILEQPAIVNKAIDQMVQQAAQNVQKDDA” the “soluble on expression in E. coli” value was “not soluble”.
For “MTTSNIKALIPSELRKVWEFILDIENYDAWRSDLSKTEVVSDKQFIEYTKDGYPTTFTVTLVEPYRRWEFDMQNSNMSGHWIGVFTDKGNETEIDFTECVEAKKMLMKPFVKSYLKKQQAQFVADIMKNFSLEHHHHHH”, the “soluble on expression in E. coli” value was “soluble”.
With “HDLALSGNAYKVRLFLSLIGREATLRPVDFLNREHKTQAFLRMNPRGQIPVLEDGELQLGDSHAILVYLARRHADPVWYPLDPVSQGRIAYWLSYSANEVQNGPASARLITRFNLPLDREQTHQRGLEVLRLVDRHLAEHRWLAQGEQPSIADVALYPYLALAPEGGLALDHYPALNAWIARIRALPGYIPMPGL” the “soluble on expression in E. coli” value was “not soluble”.
